Assay results reported in PMC7082840 (Developmental cell, 2019).

Molecular target: the molecule itself
Experiment: native gel or EMSA

B1: NEUROG3^S183A (natural protein, human, UniProt Q9Y4Z2 1-214, looked up)
chain: MTPQPSGAPTVQVTRETERSFPRASEDEVTCPTSAPPSPTRTRGNCAEAEEGGCRGAPRKLRARRGGRSRPKSELALSKQRRSRRKKANDRERNRMHNLNSALDALRGVLPTFPDDAKLTKIETLRFAHNYIWALTQTLRIADHSLYALEPPAPHCGELGSPGGSPGDWGSLYSPVSQAGSLAPAASLEERPGLLGATFSACLSPGSLAFSDFL
- binding result: binds
